Measured values from patent US20220249561A1.

Target: ALK 001P
Test: flow cytometry; CAR-T cells incubated with ALK 001P, detected with PE anti-His tag antibody and APC anti-CD3

Chain of ALK 001P (chain, as listed by the source limits assumed): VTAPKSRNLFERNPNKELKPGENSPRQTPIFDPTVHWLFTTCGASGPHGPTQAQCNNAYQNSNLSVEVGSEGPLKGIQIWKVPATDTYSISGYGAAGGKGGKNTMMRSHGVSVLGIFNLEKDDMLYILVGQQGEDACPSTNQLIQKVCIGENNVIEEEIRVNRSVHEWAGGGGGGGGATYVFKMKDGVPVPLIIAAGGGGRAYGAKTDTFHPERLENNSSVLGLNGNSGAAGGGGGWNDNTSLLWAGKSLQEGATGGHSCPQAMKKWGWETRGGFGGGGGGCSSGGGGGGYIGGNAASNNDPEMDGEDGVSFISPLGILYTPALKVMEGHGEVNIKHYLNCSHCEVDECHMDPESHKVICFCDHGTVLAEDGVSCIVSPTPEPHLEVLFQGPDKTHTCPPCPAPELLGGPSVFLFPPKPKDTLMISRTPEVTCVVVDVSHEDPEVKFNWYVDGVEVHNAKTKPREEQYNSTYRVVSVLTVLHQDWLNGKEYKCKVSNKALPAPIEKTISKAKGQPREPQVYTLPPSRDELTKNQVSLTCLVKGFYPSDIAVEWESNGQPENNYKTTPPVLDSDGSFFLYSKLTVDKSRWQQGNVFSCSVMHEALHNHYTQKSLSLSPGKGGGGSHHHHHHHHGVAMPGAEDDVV

Expression rate (% of cells positive for ALK 001P staining): 24.1%
B1: CAR 021 (FAM150BTr-28z dCH2CH3) (protein)
chain: AEAAGLGPSPEQRVEIVPRDLRMKDKFLKHLTGPLYFSPKCSKHFHRLYHNTRDCTIPAYYKRCARLLTRLAVSPVCMEDKQEPKSCDKTHTCPPCDPAEPKSPDKTHTCPFWVLVVVGGVLACYSLLVTVAFIIFWVRSKRSRLLHSDYMNMTPRRPGPTRKHYQPYAPPRDFAAYRSRVKFSRSADAPAYQQGQNQLYNELNLGRREEYDVLDKRRGRDPEMGGKPRRKNPQEGLYNELQKDKMAEAYSEIGMKGERRRGKGHDGLYQGLSTATKDTYDALHMQALPPR
